Experimental data as given in patent US20170088600A1 (published 2017).

T1: mouse TRAIL expressed on transiently transfected 293T cells (mouse, UniProt P50592 1-291)
T1 construct: whole, on cells; also called mTRAIL; mouse (m) TRAIL
T1 sequence (looked up): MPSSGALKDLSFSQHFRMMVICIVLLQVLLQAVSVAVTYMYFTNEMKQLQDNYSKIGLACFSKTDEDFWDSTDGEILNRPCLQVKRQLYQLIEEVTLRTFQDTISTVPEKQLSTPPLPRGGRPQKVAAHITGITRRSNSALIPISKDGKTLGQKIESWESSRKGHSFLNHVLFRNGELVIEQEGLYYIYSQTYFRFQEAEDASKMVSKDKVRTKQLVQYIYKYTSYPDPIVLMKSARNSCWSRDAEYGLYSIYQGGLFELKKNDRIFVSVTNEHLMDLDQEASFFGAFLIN

B1: mouse TRAIL-R2:Fc (extracellular domain of mouse TRAIL-R2 fused to human IgG constant domain) (Fc fusion, UniProt Q9QZM4 53-180, looked up)
chain: NPAHNRPAGLQRPEESPSRGPCLAGQYLSEGNCKPCREGIDYTSHSNHSLDSCILCTVCKEDKVVETRCNITTNTVCRCKPGTFEDKDSPEICQSCSNCTDGEEELTSCTPRENRKCVSKTAWASWHK
notes: extracellular domain; also called mTRAIL-R2:Fc; not shown: printed only as the human IgG VH constant domain; subclass, limits and linker no
B2: TRAIL-R2-Fc K155A (Fc fusion, human, not shown: a dimerising Fc or GST)
chain: QQDLAPQQRAAPQQKRSSPSEGLCPPGHHISEDGRDCISCKYGQDYSTHWNDLLFCLRCTRCDSGEVELSPCTTTRNTVCQCEEGTFREEDSPEMCRACRTGCPRGMVKVGDCTPWSDIECVHKESGLVPRGS
notes: range 58-184
B3: TRAIL-R2-Fc V167A (Fc fusion, human, not shown: a dimerising Fc or GST)
chain: QQDLAPQQRAAPQQKRSSPSEGLCPPGHHISEDGRDCISCKYGQDYSTHWNDLLFCLRCTRCDSGEVELSPCTTTRNTVCQCEEGTFREEDSPEMCRKCRTGCPRGMVKAGDCTPWSDIECVHKESGLVPRGS
notes: range 58-184
B4: TRAIL-R2-Fc M152A/R154A/K155A (Fc fusion, human, not shown: a dimerising Fc or GST)
chain: QQDLAPQQRAAPQQKRSSPSEGLCPPGHHISEDGRDCISCKYGQDYSTHWNDLLFCLRCTRCDSGEVELSPCTTTRNTVCQCEEGTFREEDSPEACAACRTGCPRGMVKVGDCTPWSDIECVHKESGLVPRGS
notes: range 58-184; also called M152/R154/K155
B5: TRAIL-R2-Fc P150A (Fc fusion, human, not shown: a dimerising Fc or GST)
chain: QQDLAPQQRAAPQQKRSSPSEGLCPPGHHISEDGRDCISCKYGQDYSTHWNDLLFCLRCTRCDSGEVELSPCTTTRNTVCQCEEGTFREEDSAEMCRKCRTGCPRGMVKVGDCTPWSDIECVHKESGLVPRGS
notes: range 58-184
B6: TRAIL-R2-Fc D148A (Fc fusion, human, not shown: a dimerising Fc or GST)
chain: QQDLAPQQRAAPQQKRSSPSEGLCPPGHHISEDGRDCISCKYGQDYSTHWNDLLFCLRCTRCDSGEVELSPCTTTRNTVCQCEEGTFREEASPEMCRKCRTGCPRGMVKVGDCTPWSDIECVHKESGLVPRGS
notes: range 58-184
B7: TRAIL-R2-Fc Y103A/N134A (Fc fusion, human, not shown: a dimerising Fc or GST)
chain: QQDLAPQQRAAPQQKRSSPSEGLCPPGHHISEDGRDCISCKYGQDASTHWNDLLFCLRCTRCDSGEVELSPCTTTRATVCQCEEGTFREEDSPEMCRKCRTGCPRGMVKVGDCTPWSDIECVHKESGLVPRGS
notes: range 58-184; also called Y103/N134
B8: TRAIL-R2-Fc F112A (Fc fusion, human, not shown: a dimerising Fc or GST)
chain: QQDLAPQQRAAPQQKRSSPSEGLCPPGHHISEDGRDCISCKYGQDYSTHWNDLLACLRCTRCDSGEVELSPCTTTRNTVCQCEEGTFREEDSPEMCRKCRTGCPRGMVKVGDCTPWSDIECVHKESGLVPRGS
notes: range 58-184
B9: TRAIL-R2-Fc L110A/L114A (Fc fusion, human, not shown: a dimerising Fc or GST)
chain: QQDLAPQQRAAPQQKRSSPSEGLCPPGHHISEDGRDCISCKYGQDYSTHWNDALFCARCTRCDSGEVELSPCTTTRNTVCQCEEGTFREEDSPEMCRKCRTGCPRGMVKVGDCTPWSDIECVHKESGLVPRGS
notes: range 58-184; also called L110/L114
B10: TRAIL-R2-Fc M152A (Fc fusion, human, not shown: a dimerising Fc or GST)
chain: QQDLAPQQRAAPQQKRSSPSEGLCPPGHHISEDGRDCISCKYGQDYSTHWNDLLFCLRCTRCDSGEVELSPCTTTRNTVCQCEEGTFREEDSPEACRKCRTGCPRGMVKVGDCTPWSDIECVHKESGLVPRGS
notes: range 58-184
B11: TRAIL-R2-Fc E151A (Fc fusion, human, not shown: a dimerising Fc or GST)
chain: QQDLAPQQRAAPQQKRSSPSEGLCPPGHHISEDGRDCISCKYGQDYSTHWNDLLFCLRCTRCDSGEVELSPCTTTRNTVCQCEEGTFREEDSPAMCRKCRTGCPRGMVKVGDCTPWSDIECVHKESGLVPRGS
notes: range 58-184
B12: TRAIL-R2-Fc Y103A/R133A (Fc fusion, human, not shown: a dimerising Fc or GST)
chain: QQDLAPQQRAAPQQKRSSPSEGLCPPGHHISEDGRDCISCKYGQDASTHWNDLLFCLRCTRCDSGEVELSPCTTTANTVCQCEEGTFREEDSPEMCRKCRTGCPRGMVKVGDCTPWSDIECVHKESGLVPRGS
notes: range 58-184; also called Y103/R133

Biological target: T1, mouse TRAIL expressed on transiently …
Assay: flow cytometry on 293T cells transfected with mouse TRAIL

B1: binds.

Biological target: T2, TRAIL (TNFSF10) ectodomain (UniProt P50591 39-281, limits assumed)
T2 construct: extracellular domain; also called endogenous TRAIL; TRAIL ectodomain
T2 sequence (P50591 39-281 limits assumed): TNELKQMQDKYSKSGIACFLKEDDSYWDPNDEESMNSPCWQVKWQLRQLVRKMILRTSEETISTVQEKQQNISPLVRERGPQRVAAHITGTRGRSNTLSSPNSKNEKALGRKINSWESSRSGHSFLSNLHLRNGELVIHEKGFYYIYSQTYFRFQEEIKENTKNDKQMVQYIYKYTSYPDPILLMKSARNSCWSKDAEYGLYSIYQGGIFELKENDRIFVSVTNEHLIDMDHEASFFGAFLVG
Assay: SPR, mutant TRAIL-R2-Fc captured, TRAIL as analyte

Point of comparison: B5, Kd 4.29 nM. Against it:
- B2 — 9.3-fold higher, 39.7 nM
- B3 — within 1.5-fold, 4.35 nM
- B6 — within 1.5-fold, 4.48 nM
- B8 — within 1.5-fold, 3.94 nM
- B10 — 47-fold higher, 202 nM

Point of comparison: B10, koff 0.000678 s⁻¹. Against it:
- B2 — 4.9-fold lower, 0.000138 s⁻¹
- B3 — 71-fold lower, 9.57e-06 s⁻¹
- B5 — 75-fold lower, 9.02e-06 s⁻¹
- B6 — 19-fold lower, 3.58e-05 s⁻¹
- B8 — 69-fold lower, 9.86e-06 s⁻¹

Point of comparison: B6, kon 8000 M⁻¹ s⁻¹. Against it:
- B2 — 2.3-fold lower, 3480 M⁻¹ s⁻¹
- B3 — 3.6-fold lower, 2200 M⁻¹ s⁻¹
- B5 — 3.8-fold lower, 2100 M⁻¹ s⁻¹
- B8 — 3.2-fold lower, 2500 M⁻¹ s⁻¹
- B10 — 2.4-fold lower, 3350 M⁻¹ s⁻¹

B4: no binding.
B7: no binding.
B9: no binding.
B11: no binding (tested: up to 1 µM ligand).
B12: no binding.
